Paper PMC5712619, “3-Sulfogalactosyl-dependent adhesion of Escherichia coli HS multivalent adhesion molecule is attenuated by sulfatase activity” (The Journal of Biological Chemistry, 2017)

Biological target: mucin from porcine stomach type II (porcine)
Test: ELISA; as a2, but mucin type II was first treated with supernatant of the sulfatase-deficient B. thetaiotaomicron anSME mutant for 24 h or 72 h

Chain of mucin from porcine stomach type II (porcine) (main, as listed by the source): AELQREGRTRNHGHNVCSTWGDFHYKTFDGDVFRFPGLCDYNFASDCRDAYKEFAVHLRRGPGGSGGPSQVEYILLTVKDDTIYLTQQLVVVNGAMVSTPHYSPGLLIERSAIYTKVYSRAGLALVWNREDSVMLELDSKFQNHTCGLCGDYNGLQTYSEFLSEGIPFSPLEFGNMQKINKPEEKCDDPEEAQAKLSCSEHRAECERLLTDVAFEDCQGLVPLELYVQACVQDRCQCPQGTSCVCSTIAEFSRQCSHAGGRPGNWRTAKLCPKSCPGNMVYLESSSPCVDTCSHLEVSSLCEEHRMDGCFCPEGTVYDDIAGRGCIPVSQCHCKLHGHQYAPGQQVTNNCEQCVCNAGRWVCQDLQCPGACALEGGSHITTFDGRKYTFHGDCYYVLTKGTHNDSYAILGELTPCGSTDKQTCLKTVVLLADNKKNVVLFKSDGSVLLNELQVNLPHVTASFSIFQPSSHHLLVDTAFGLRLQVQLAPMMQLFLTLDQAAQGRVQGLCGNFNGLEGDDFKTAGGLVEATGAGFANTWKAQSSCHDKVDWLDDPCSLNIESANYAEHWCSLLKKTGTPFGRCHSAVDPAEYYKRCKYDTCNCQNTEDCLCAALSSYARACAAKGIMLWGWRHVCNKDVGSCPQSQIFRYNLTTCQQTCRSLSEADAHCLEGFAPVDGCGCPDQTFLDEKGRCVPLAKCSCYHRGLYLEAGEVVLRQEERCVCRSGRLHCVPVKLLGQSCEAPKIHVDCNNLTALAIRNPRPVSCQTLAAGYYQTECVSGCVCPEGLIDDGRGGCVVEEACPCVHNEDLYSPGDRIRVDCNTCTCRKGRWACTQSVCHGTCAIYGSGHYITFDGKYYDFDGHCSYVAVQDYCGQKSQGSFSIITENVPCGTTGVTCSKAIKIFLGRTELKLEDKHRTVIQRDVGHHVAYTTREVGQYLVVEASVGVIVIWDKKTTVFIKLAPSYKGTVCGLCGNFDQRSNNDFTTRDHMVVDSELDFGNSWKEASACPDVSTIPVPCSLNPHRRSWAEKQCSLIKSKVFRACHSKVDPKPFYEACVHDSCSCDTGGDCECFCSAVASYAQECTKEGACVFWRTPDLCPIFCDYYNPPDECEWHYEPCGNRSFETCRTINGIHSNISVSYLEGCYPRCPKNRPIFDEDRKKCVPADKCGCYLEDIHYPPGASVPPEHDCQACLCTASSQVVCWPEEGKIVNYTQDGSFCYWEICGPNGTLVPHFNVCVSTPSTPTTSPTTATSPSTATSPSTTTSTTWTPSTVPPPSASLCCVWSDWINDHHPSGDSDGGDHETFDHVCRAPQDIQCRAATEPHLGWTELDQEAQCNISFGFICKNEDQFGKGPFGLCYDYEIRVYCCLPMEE

GST-MAM^HS (multivalent adhesion molecule from the gut commensal Escherichia coli HS, ΔTM construct) (domain or fragment)
loss of binding as percent of the loss seen with wild-type supernatant (24 h treatment of mucin with anSME mutant supernatant): 25%
loss of binding as percent of the loss seen with wild-type supernatant (72 h treatment of mucin with anSME mutant supernatant): 50%
